Results as given in the supplement of paper PMC9732359.
± gives the uncertainty stated by the source.

Assay: protein stability index of a GFP-peptide fusion (yeast GPS) (PSI 1-4); higher = more stable; sorted into four equal gates, so the index is relative within each strain
How it was run: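 Yeast carrying a pooled library were grown to mid-log phase in leucine-free medium. Each library plasmid expresses Cherry and has a tiled 17-residue yeast protein peptide fused downstream of GFP. Cells were sorted into four equal gates by GFP/Cherry ratio, and plasmids from each gate were PCR-amplified, Illumina-sequenced and assigned to strains by barcode. Summing, across gates, the read frequency times the gate number gave each peptide's protein stability index.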

| Sequence | protein stability index (doa10∆) | protein stability index (pdr5∆) | protein stability index (san1∆) | protein stability index (ubr1∆) |
| --- | --- | --- | --- | --- |
| EDCDLVIMALMLMSKIG [POP5] | 1.46 ± 0.038 | 1.89 ± 0.053 | 1.81 ± 0.069 | 2.32 ± 0.037 |
| HKQGSSYVAVLGMGKAV [POP7] | 1.69 ± 0.077 | 1.71 ± 0.053 | 1.66 ± 0.082 | 1.86 ± 0.062 |
| AINVFPEGYKAKSISTS [RPO31] | 2.03 ± 0.05 | 1.8 ± 0.057 | 2.27 ± 0.07 | 2.31 ± 0.059 |
| QMPLNSNGGNNMLPQRQ [SNF2] | 2.41 ± 0.047 | 2.79 ± 0.053 | 2.39 ± 0.064 | 2.54 ± 0.043 |
| TRLYDYEIRDIDQDIHG [SSN2] | 3.54 ± 0.11 | 3.55 ± 0.16 | 3.48 ± 0.094 | 3.49 ± 0.11 |
| DWQKEDGIFSSKTDNIE [YMR153W/NUP53] | – | – | 3.22 ± 0.15 | 2.86 ± 0.2 |
| EFQPSGNVTELYGTAIG [PRE5] | 2.15 ± 0.069 | 2.8 ± 0.07 | 1.98 ± 0.067 | 1.57 ± 0.041 |
| STATRNVTMIDDLIHFT [COR1] | 2.68 ± 0.097 | 2.81 ± 0.092 | 2.82 ± 0.086 | 2.89 ± 0.085 |
| RMKQYLKTKLLEEVEGS [RPB7] | 3.09 ± 0.13 | 3.09 ± 0.1 | 3.11 ± 0.088 | 3.24 ± 0.13 |
| NILSNKPGQNNRQQKKR [RRP6] | 2.73 ± 0.18 | 3.06 ± 0.13 | – | – |
| TEEKCKNFIESESVGAF [YJL039C/NUP192] | 3.43 ± 0.15 | 3.23 ± 0.088 | 3.33 ± 0.062 | 3.47 ± 0.056 |
| HSNLEKISNSKLLSLLR [SIR4] | 2.4 ± 0.063 | 2.65 ± 0.052 | 2.5 ± 0.051 | 2.48 ± 0.047 |
| ARKGLTPSQIGVLLRDA [RPS13] | 2.91 ± 0.26 | – | 2.09 ± 0.21 | 2.32 ± 0.041 |
| NVKFLRIFISNVSENQP [SNF12] | 1.53 ± 0.095 | 1.63 ± 0.075 | 2.02 ± 0.075 | 1.95 ± 0.069 |
| ASFFFMVMFMHMAKGLY [COB] | 1.86 ± 0.046 | 1.58 ± 0.038 | 1.67 ± 0.08 | 1.4 ± 0.037 |
| ENIIQRLQAANSMEYTG [CDC53] | 1.94 ± 0.065 | 2.32 ± 0.11 | 2.25 ± 0.18 | 1.9 ± 0.095 |
| EEIRSQIDHFKSMLSKP [SWI3] | 1.65 ± 0.045 | 2.32 ± 0.065 | 2.67 ± 0.053 | 2.35 ± 0.04 |
| EKWISSKNSKLSIICVG [SIR3] | 1.82 ± 0.091 | 1.52 ± 0.075 | 1.37 ± 0.17 | 1.23 ± 0.073 |
| ASLQQQQQQDLQQQQQV [SNF6] | 2.66 ± 0.26 | 2.7 ± 0.17 | – | 2.69 ± 0.21 |
| AFVKQKNDSLEKTINDL [YIL149C/MLP2] | 3.1 ± 0.11 | 3.19 ± 0.11 | 3.02 ± 0.14 | 3.11 ± 0.12 |
| SKCLNLISDSNINNSSV [SWI3] | 1.94 ± 0.072 | 1.91 ± 0.065 | 1.6 ± 0.11 | 2.41 ± 0.039 |
| KAPNAVVITFEKEDHTL [RPB11] | 1.26 ± 0.077 | 2.7 ± 0.12 | 2.19 ± 0.091 | 1.97 ± 0.076 |
| SKKRKLVADGVFYAELN [RPS3] | 2.82 ± 0.24 | 1.84 ± 0.19 | 1.55 ± 0.13 | – |
| TPNVREEKQKSYKFPRG [PUP1] | 3.29 ± 0.13 | 2.74 ± 0.12 | 3.13 ± 0.095 | – |
| KPVYKGKKLTDEINTAQ [RET1] | 2.92 ± 0.12 | 2.99 ± 0.094 | 2.75 ± 0.084 | 3.2 ± 0.077 |
| LSTSVGWKYEDVVAKLE [RPL16A] | 3.44 ± 0.11 | 3.29 ± 0.21 | 3.5 ± 0.14 | 3.53 ± 0.19 |
| AVAASSTKTGTPSDLSE [POP1] | 3.3 ± 0.084 | 3.26 ± 0.077 | 3.41 ± 0.045 | 3.33 ± 0.035 |

| Sequence | protein stability index (doa10∆) | protein stability index (pdr5∆) | protein stability index (san1∆) | protein stability index (ubr1∆) |
| --- | --- | --- | --- | --- |
| VENYETSSAFFYQQVHK [SIR4] | 2.75 ± 0.04 | 2.57 ± 0.042 | 2.43 ± 0.045 | 2.52 ± 0.03 |
| QPQETEEHHEEEPSRVD [RPT4] | 3.56 ± 0.064 | 3.44 ± 0.1 | 3.23 ± 0.074 | 3.22 ± 0.086 |
| MSDSIISFAAFILADAG [RPP1B] | 1.62 ± 0.069 | 1.35 ± 0.049 | 1.31 ± 0.2 | 1.26 ± 0.057 |
| LTALGKEKEKEREEAEK [MED2] | 1.3 ± 0.23 | 1.43 ± 0.16 | – | 1.32 ± 0.15 |
| TTKMWPTNCPLRQFKTC [BRR2] | 2.41 ± 0.093 | 2.31 ± 0.095 | 2.01 ± 0.082 | 2.34 ± 0.086 |
| TNKDIICQIISSTITGD [RPL5] | 2.6 ± 0.055 | 2.13 ± 0.057 | 2.94 ± 0.1 | 2.24 ± 0.055 |
| IDETMMDKPLNFRILKS [SRB5] | 2.95 ± 0.14 | 3.09 ± 0.13 | 2.76 ± 0.087 | 2.79 ± 0.13 |
| RDMIMKRNSDKVEYKIV [ITC1] | 1.78 ± 0.078 | 1.83 ± 0.078 | 1.85 ± 0.12 | 1.31 ± 0.047 |
| TDKKAFLGALKYLPHAI [PRP8] | 2.94 ± 0.12 | 2.92 ± 0.097 | 3.19 ± 0.072 | 2.96 ± 0.054 |
| SKLLQTTLKLSPSPILL [NUT1] | 2.4 ± 0.045 | 1.47 ± 0.051 | 1.72 ± 0.091 | 1.5 ± 0.046 |
| FDKKSFFNGKALNNAIP [PRP8] | 2.06 ± 0.08 | 1.91 ± 0.051 | 1.98 ± 0.15 | 1.92 ± 0.052 |
| NSNKQAVAILADDEKSD [BRR2] | 3.04 ± 0.091 | 3.07 ± 0.071 | 3.03 ± 0.086 | 2.88 ± 0.044 |
| VLKYMLLSKIMLNLIDD [RPN6] | 2.04 ± 0.06 | 1.49 ± 0.05 | 1.2 ± 0.098 | 1.66 ± 0.045 |
| PAEHPFISAARYKPKSH [RPC37] | 2.99 ± 0.1 | 3.04 ± 0.082 | 2.66 ± 0.064 | 3.13 ± 0.066 |
| RNSVKLLSKLLLKHPFK [YCS4] | 2.41 ± 0.042 | 2.1 ± 0.038 | 1.92 ± 0.056 | 2.07 ± 0.04 |
| SKTLSLIQSYSLLDKPD [FAS1] | 2.18 ± 0.078 | 2.01 ± 0.057 | 2.12 ± 0.21 | 2.14 ± 0.074 |
| CNNINKGLKENDVAVEK [BRR2] | 3.17 ± 0.12 | 3.68 ± 0.18 | 3.25 ± 0.09 | 3.43 ± 0.12 |
| IDEKSQFVETIVSKSIE [RPN2] | 1.68 ± 0.1 | 2.19 ± 0.1 | 1.64 ± 0.096 | 1.98 ± 0.089 |
| KVAQLRQTGPAKINEVY [NSL1] | 2.97 ± 0.14 | 3.04 ± 0.15 | 2.84 ± 0.1 | 3.58 ± 0.11 |
| IASTLGPSAMRLSRCIR [RPC82] | 1.84 ± 0.089 | 2.46 ± 0.08 | 1.81 ± 0.083 | 2.4 ± 0.055 |
| ELSKSRALQENGIIMNG [YMR153W/NUP53] | 2.63 ± 0.16 | 2.85 ± 0.13 | 2.64 ± 0.16 | 3.17 ± 0.15 |
| NLGEYESAVKYALAAKD [RPN2] | 2.42 ± 0.15 | 2.65 ± 0.09 | 2.7 ± 0.09 | 2.8 ± 0.054 |
| PLGKILLKGDNITLITS [SME1] | 1.9 ± 0.093 | 3.12 ± 0.13 | 1.89 ± 0.16 | 3.07 ± 0.061 |
| VRWIETQDVFLKDFNTE [FAS2] | 3.227 ± 0.03 | 3.065 ± 0.026 | 3.014 ± 0.025 | 3.154 ± 0.021 |
| FDKDLERDTFSDFTFPE [DIS3] | 2.11 ± 0.15 | 1.88 ± 0.13 | 1.24 ± 0.17 | 1.32 ± 0.15 |
| IVQFTYGGDGLDPLEME [RPO31] | – | 3.09 ± 0.2 | 2.55 ± 0.27 | – |
